We go through eight molecules from paper PMC11229326, “Structural characterization of two prototypical repressors of SorC family reveals tetrameric assemblies on DNA and mechanism of function” (Nucleic Acids Research, 2024).

Data set [1] concerns the molecule itself. Nature of the data set: cryo-EM structure; CggR with the 45 bp operator DNA OLR (molar ratio 4:1.5), SEC-purified complex, 0.86 mg/ml; C2 symmetry, 4.3 Å.
Data set [2] concerns the molecule itself. Nature of the data set: cryo-EM 2D classification; purified CggR-OLR complex (0.86 mg/ml) with 2 mM FBP, about 15 min on ice.
Data set [3] has as its target T1, DeoR (Bacillus subtilis, UniProt P39140 2-313).
T1 sequence: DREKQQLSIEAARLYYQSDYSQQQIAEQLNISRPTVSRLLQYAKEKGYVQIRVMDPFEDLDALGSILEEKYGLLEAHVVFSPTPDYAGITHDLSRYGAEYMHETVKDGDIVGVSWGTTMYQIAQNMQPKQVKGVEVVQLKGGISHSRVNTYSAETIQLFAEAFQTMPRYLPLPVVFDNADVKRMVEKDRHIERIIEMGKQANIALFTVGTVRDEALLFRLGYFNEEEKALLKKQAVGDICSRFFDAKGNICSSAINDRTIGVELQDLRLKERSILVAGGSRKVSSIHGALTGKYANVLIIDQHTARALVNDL
Nature of the data set: MST; DeoR 4 uM; 50 mM MgCl2; Hill coefficient slightly below 1; MST: 50 mM Tris-HCl pH 7.5, 150 mM NaCl, 50 mM MgCl2, 2 mM EDTA, 0.02% beta-mercaptoethanol; DeoR SEC mixes incubated 30 min on ice; CggR storage 20 mM Tris-HCl pH 7.5, 100 mM NaCl, 0.02% beta-mercaptoethanol, complex formed 30 min on ice. Conditions: protein: recombinant; tags: N-terminal GIDPFT cloning artifact after TEV cleavage (His6-V5 removed); chain copies: 4; blunt.

Data set [4] addresses T1, DeoR. The experiment in a line: SEC; about 56 uM DeoR, protein:DNA 4:1; MST: 50 mM Tris-HCl pH 7.5, 150 mM NaCl, 50 mM MgCl2, 2 mM EDTA, 0.02% beta-mercaptoethanol; DeoR SEC mixes incubated 30 min on ice; CggR storage 20 mM Tris-HCl pH 7.5, 100 mM NaCl, 0.02% beta-mercaptoethanol, complex formed 30 min on ice. Conditions: protein: recombinant; tags: N-terminal GIDPFT cloning artifact after TEV cleavage (His6-V5 removed); chain copies: 4; blunt. (Size exclusion chromatography separates by hydrodynamic size, large species first.)

For data set [5], the target named is T1, DeoR. The experiment in a line: X-ray crystallography; 3.7 A; protein about 8 mg/ml; 75 mM CaCl2, 25 mM MgCl2; MST: 50 mM Tris-HCl pH 7.5, 150 mM NaCl, 50 mM MgCl2, 2 mM EDTA, 0.02% beta-mercaptoethanol; DeoR SEC mixes incubated 30 min on ice; CggR storage 20 mM Tris-HCl pH 7.5, 100 mM NaCl, 0.02% beta-mercaptoethanol, complex formed 30 min on ice. As to conditions: protein: recombinant; tags: N-terminal GIDPFT cloning artifact after TEV cleavage (His6-V5 removed); chain copies: 4; blunt.

The target of a further data set is CggR (Bacillus subtilis, UniProt O32253 1-340). Nature of the data set: cryo-EM; 4.3 A; tetramer, no effector; MST: 50 mM Tris-HCl pH 7.5, 150 mM NaCl, 50 mM MgCl2, 2 mM EDTA, 0.02% beta-mercaptoethanol; DeoR SEC mixes incubated 30 min on ice; CggR storage 20 mM Tris-HCl pH 7.5, 100 mM NaCl, 0.02% beta-mercaptoethanol, complex formed 30 min on ice. Conditions: protein: recombinant; tags: N-terminal GIDPFT cloning artifact after TEV cleavage (His6-V5 removed); chain copies: 4; blunt.

Data set [6] concerns the molecule itself. Nature of the data set: crystal structure; DeoR co-crystallised with the 18 bp DNA duplex OL18 (left half-operator); hanging drop, 18°C; two dimers in the asymmetric unit, tetramer formed with a symmetry-related dimer; 3.7 Å.
Data set [7] deals with T1, DeoR. The experiment in a line: SEC; about 56 uM DeoR, protein:DNA 2:1; MST: 50 mM Tris-HCl pH 7.5, 150 mM NaCl, 50 mM MgCl2, 2 mM EDTA, 0.02% beta-mercaptoethanol; DeoR SEC mixes incubated 30 min on ice; CggR storage 20 mM Tris-HCl pH 7.5, 100 mM NaCl, 0.02% beta-mercaptoethanol, complex formed 30 min on ice. As to conditions: protein: recombinant; tags: N-terminal GIDPFT cloning artifact after TEV cleavage (His6-V5 removed); chain copies: 4; blunt.

The term stoichiometry N denotes the number of molecules, sites or subunits per partner or assembly. As usually defined, the Kd is the concentration at which binding is half-saturated.

B1: CggR from Bacillus subtilis (central glycolytic genes regulator, SorC/CggR subfamily repressor) (natural protein)
chain: GIDPFTMNQLIQAQKKLLPDLLLVMQKRFEILQYIRLTEPIGRRSLSASLGISERVLRGEVQFLKEQNLVDIKTNGMTLTEEGYELLSVLEDTMKDVLGLTLLEKTLKERLNLKDAIIVSGDSDQSPWVKKEMGRAAVACMKKRFSGKNIVAVTGGTTIEAVAEMMTPDSKNRELLFVPARGGLGEDVKNQANTICAHMAEKASGTYRLLFVPGQLSQGAYSSIIEEPSVKEVLNTIKSASMLVHGIGEAKTMAQRRNTPLEDLKKIDDNDAVTEAFGYYFNADGEVVHKVHSVGMQLDDIDAIPDIIAVAGGSSKAEAIEAYFKKPRNTVLVTDEGAAKKLLRDE
notes: cloning artifact that remains at the N-terminus after TEV PR cleavage; DBD and EBD connected by residues 92-94; also called apo-CggR; source: E. coli BL21 (DE3), purified (Ni-NTA, hydroxyapatite, TEV PR cleavage, reverse Ni-NTA, Mono-Q ion exchange); not shown: His6, N-terminal, cleaved
As for B1, the entries for the “stoichiometry N” value in data set [1] and in data set [2] were 4 and 2, respectively.

B2: OLR65 (dsDNA)
DNA 1: GTGACACGTTCAAACCTTTCATTGAACAAAATTTCAATTACCAATTTACATATGTTCAAAAGTCG
DNA 2: CGACTTTTGAACATATGTAAATTGGTAATTGAAATTTTGTTCAATGAAAGGTTTGAACGTGTCAC
In the case of B2, the Kd in the data set with DeoR [3] was ~30 µM.

B3: OL44 (dsDNA)
DNA 1: CACGTTCAAACCTTTCATTGAACAAAATTTCAATTACCAATTTACA
DNA 2: TGTAAATTGGTAATTGAAATTTTGTTCAATGAAAGGTTTGAACGTG
Consider B3, for which, in the data set with DeoR [4], the binding result is “no binding”.

B4: OL18 (dsDNA)
DNA 1: ATTGAACAAAATTTCAAT
DNA 2: ATTGAAATTTTGTTCAAT
As to B4, the binding result with DeoR [5] is recorded as “binds”.

B5: CggR OLR (45 bp) (dsDNA)
DNA 1: TGACGGGACGTTTTTTGTCATAGCGGGACATATAATGTCCAGCAA
DNA 2: TTGCTGGACATTATATGTCCCGCTATGACAAAAAACGTCCCGTCA
B5: the binding result with CggR is “binds”.

B6: OLR39 (dsDNA)
DNA 1: ATTGAACAAAATTTCAATTACCAATTTACATATGTTCAA
DNA 2: TTGAACATATGTAAATTGGTAATTGAAATTTTGTTCAAT
For the molecule B6, in the data set with DeoR [4], the binding result is “binds”.

B7: DeoR from Bacillus subtilis (deoxyribonucleoside regulator, SorC/DeoR subfamily repressor) (natural protein)
chain: GIDPFTDREKQQLSIEAARLYYQSDYSQQQIAEQLNISRPTVSRLLQYAKEKGYVQIRVMDPFEDLDALGSILEEKYGLLEAHVVFSPTPDYAGITHDLSRYGAEYMHETVKDGDIVGVSWGTTMYQIAQNMQPKQVKGVEVVQLKGGISHSRVNTYSAETIQLFAEAFQTMPRYLPLPVVFDNADVKRMVEKDRHIERIIEMGKQANIALFTVGTVRDEALLFRLGYFNEEEKALLKKQAVGDICSRFFDAKGNICSSAINDRTIGVELQDLRLKERSILVAGGSRKVSSIHGALTGKYANVLIIDQHTARALVNDL
notes: cloning artifact that remains at the N-terminus after TEV PR cleavage; DBD residues 1-55, EBD residues 56-313; in the crystal model residue T1 is the last residue of the cloning artifact; also called apo-DeoR; source: E. coli BL21 (DE3), purified (Ni-NTA, TEV PR cleavage, reverse Ni-NTA); LB broth for structural studies, minimal medium for mass photometry and SEC; not shown: His6, N-terminal, …
For B7, the “stoichiometry N” value in data set [6] was found to be 4.

B8: OR24 (dsDNA)
DNA 1: TACCAATTTACATATGTTCAAAAG
DNA 2: CTTTTGAACATATGTAAATTGGTA
Consider B8, for which the binding result in the data set with DeoR [7] is “no binding”.
